In publication PMC3376730, “Crystal structure of Caulobacter crescentus polynucleotide phosphorylase reveals a mechanism of RNA substrate channelling and RNA degradosome assembly” (Open Biology, 2012):

T1: PNPase (polynucleotide phosphorylase) (Caulobacter crescentus, UniProt Q9AC32 1-712)
T1 sequence: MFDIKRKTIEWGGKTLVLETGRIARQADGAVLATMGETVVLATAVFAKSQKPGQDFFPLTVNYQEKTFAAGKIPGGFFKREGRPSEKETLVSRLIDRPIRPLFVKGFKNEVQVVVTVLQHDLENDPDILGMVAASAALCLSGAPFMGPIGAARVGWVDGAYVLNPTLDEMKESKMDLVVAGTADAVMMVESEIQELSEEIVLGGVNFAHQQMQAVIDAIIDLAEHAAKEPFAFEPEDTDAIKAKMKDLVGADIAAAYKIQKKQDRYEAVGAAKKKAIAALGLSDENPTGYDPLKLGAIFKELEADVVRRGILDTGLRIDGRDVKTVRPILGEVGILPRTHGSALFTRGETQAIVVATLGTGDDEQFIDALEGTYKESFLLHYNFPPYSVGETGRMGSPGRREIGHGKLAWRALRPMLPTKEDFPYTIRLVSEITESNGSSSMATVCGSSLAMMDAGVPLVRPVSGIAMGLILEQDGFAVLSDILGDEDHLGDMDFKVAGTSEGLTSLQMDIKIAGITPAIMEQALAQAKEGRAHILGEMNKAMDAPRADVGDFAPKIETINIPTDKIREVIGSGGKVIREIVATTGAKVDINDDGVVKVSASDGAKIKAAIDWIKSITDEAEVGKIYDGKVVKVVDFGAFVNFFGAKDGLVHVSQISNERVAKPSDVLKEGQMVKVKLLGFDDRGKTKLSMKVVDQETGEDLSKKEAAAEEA

B1: Caulobacter crescentus polynucleotide phosphorylase (enzyme, UniProt B8GWZ0 1-712, looked up)
chain: T1 sequence
notes: polynucleotide phosphorylase, pnp gene (CC0034), amplified from genomic DNA of C. crescentus strain NA1000 with primers from the start codon to the stop codon; Two alternative constructs were made (GST-PNPase from pGEX-6p-1, GST cut off with PreScission protease; 6xHis-PNPase from pET-DUET); the two tags are not on one chain; also called PNPase; C. crescentus PNPase; source: E. coli, purified …
B2: C. crescentus PNPase recognition peptide from RNase E (EKPRRGWWRR) (peptide)
peptide: EKPRRGWWRR
notes: last 10 amino acids of C. crescentus RNase E; also called GWW peptide; RNase E recognition peptide; source: synthetic peptide (Cambridge Research Biochemicals)
B3: 27mer MicC portion RNA (ssRNA)
RNA: GUUUAUUGCCGUUCUUGUUAUAUGCCUU
B4: GST fused to the PNPase recognition peptide of RNase E (TAPPEKPRRGWWRR) (peptide)
chain: TAPPEKPRRGWWRR
notes: C-terminal PNPase recognition peptide of C. crescentus RNase E, encoded by the 3' end of the rne gene (cc1877); Cloned in pGEX-6p-1 through BamHI and XhoI; also called GST–GWW; GST–GWW peptide; source: E. coli, purified (glutathione sepharose); not shown: GST, N-terminal, kept

Columns and labels:
[1] = molecular target: the molecule itself; test: crystal structure; apo-PNPase co-crystallised with the peptide at 2 : 1 molar excess; rhombohedral (R3) and hexagonal (P6_(3)) forms, sitting drop, 18°C
[2] = molecular target: B1; test: as above; conditions: both partners purified
[3] = molecular target: T1, PNPase (polynucleotide phosphorylase); test: X-ray crystallography; co-crystallized with apo-PNPase; same cell and space group (P22121) as endogenous RNA complex; Crystals of RNA-bound PNPase: 24% w/v PEG 3350, 0.1 M bis-Tris pH 5.5, 0.1 M ammonium acetate, 18 C; conditions: protein: recombinant; tags: 6xHis N-terminal (pET-DUET) or N-terminal GST (pGEX-6p-1) removed with PreScission; chain copies: 3
[4] = molecular target: B1; test: native gel or EMSA; approximate fourfold molar excess of GST-peptide mixed with PNPase, 20 mM Tris–HCl pH 7.5, 200 mM NaCl, room temperature 10 min, 8 per cent non-denaturing PAGE; conditions: both partners purified

Binder: B1
stoichiometry N [1]: 3

Binder: B2
binding result [2]: binds

Binder: B3
binding result [3]: binds

Binder: B4
binding result [4]: binds
